# Laboratory results: patent US20200277339A1 (GENOME PROTECTION, published 2020)
# Biological target: TLR5 of the cell-based reporter assays
# Assay: cell-based or functional assay
Binder,"Relative EC50 vs 502, Signaling (LecZ) [fold vs 502]","Relative EC50 vs 502, Signaling (Luc) [fold vs 502]"
CBLB502 (ligand) not shown,1,1
CBLB502 variant 467 (ligand) MRGSHHHHHHGMASMTGGQQMGRDLYDLVPRGSAKDPMAQVINTNSLSLLTQNNLNKSQSSLSSAIERLSSGLRINSAKDDAAGQAIANRFTSNIKGLTQASRNANDGISIAQTTEGALNEINNNLQRVRELSVQATNGTNSDSDLKSIQDEIQQRLEEIDRVSNQTQFNGVKVLSQDNQMKIQVGANDGETITIDLQKIDVKSLGLDGFNVNSPGISGGGGGILDSMGTLINEDAAAAKKSTANPLASIDSALSKVDAVRSSLGAIQNRFDSAITNLGNTVTNLNSARSRIEDA,57,71
CBLB502 variant 485D (ligand) MSGLRINSAKDDAAGQAIANRFTSNIKGLTQASRNANDGISIAQTTEGALNEINNNLQRVRELSVQATNGTNSDSDLKSIQDEIQQRLEEIDRVSNQTQFNGVKVLSQDNQMKIQVGANDGETITIDLQKIDVKSLGLDGFNVNSPGSTANPLASIDSALSKVDAVRSSLGAIDSAITALGNTVTNLNSARSRIEDADYATEVSNMSKAQILQQAGLVPRGSHHHHHHG,44,–
CBLB502 variant 461 (ligand) MRGSHHHHHHGMASMTGGQQMGRDLYDLVPRGSAKDPMAQVINTNSLSLLTQNNLNKSQSSLSSAIERLSSGLRINSAKDDAAGQAIANRFTSNIKGLTQASRNANDGISIAQTTEGALNEINNNLQRVRELSVQATNGTNSDSDLKSIQDEIQQRLEEIDRVSNQTQFNGVKVLSQDNQMKIQVGANDGETITIDLQKIDVKSLGLDGFNVNSPGISGGGGGILDSMGTLINEDAAAAKKSTANPLASIDSALSKVDAVRSSLGAIQNRFDSAITNLGNTVTNLNSAR,105,97
CBLB502 variant MF227C (ligand) MSGLRINSAKDDAAGQAIANRFTSNIKGLTQASRNANDGISIAQTTEGALNEINNNLQRVRELSVQATNGTNSDSDLKSIQDEIQQRLEEIDRVSNQTQFNGVKVLSQDNQMKIQVGANDGETITIDLQKIDVKSLGLDGFNVNSPGSTANPLASIDSALSKVDAVRSSLGAIQNRFDSAITNLGNTVTNLNSARSRIEDADYANQVPQNVLSLLVPRGSHHHHHHG,5.5,–
CBLB502 variant 445 (ligand) MRGSHHHHHHGMASMTGGQQMGRDLYDLVPRGSAKDPMAQVINTNSLSLLTQNNLNKSQSSLSSAIERLSSGLRINSAKDDAAGQAIANRFTSNIKGLTQASRNANDGISIAQTTEGALNEINNNLQRVRELSVQATNGTNSDSDLKSIQDEIQQRLEEIDRVSNQTQFNGVKVLSQDNQMKIQVGANDGETITIDLQKIDVKSLGLDGFNVNSPGISGGGGGILDSMGTLINEDAAAAKKSTANPLASIDSALSKVDAVRSSLGAIQNRFD,694,141000

# Biological target: TLR5 of the cell-based reporter assays
# Assay: cell-based or functional assay
# Remark: another data set of the same source
row,Binder,Signaling EC50 Normalized by CBLB502 [fold vs CBLB502]
1,CBLB502 mutant 33MIMX (ligand) MRGSHHHHHHGMASMTGGQQMGRDLYDLVPRGSAKDPSGLRINSAKDDAAGQAIANRFTSNIKGLTQASRNAADGISIAQTTEGALNEINNNLQRVRELSVQATNGTNSDSDLKSIQDEIQQRLEEIDRVSNQTQANGVKVLSQDNAMKIQVGANDGAAITIDLQKIDVKSLGLDGFNVNSPGISGGGGGILDSMGTLINEDAAAAKKSTANPLASIDSALSKVDAVRSSLGAIQARFAAAIANLGNTVTNLNSARSRIEDADYATEVSNMSKAQILQQAGTSVLAQANQVPQNVLSLLR,1.3
2,CBLB502 mutant MIM4 (ligand) MRGSHHHHHHGMASMTGGQQMGRDLYDDDDKDPMAQVINTNSLSLLTQNNLNKSQSSLSSAIERLSSGLRINSAKDDAAGQAIANRFTSNIKGLTQASRNANDGISIAQTTEGALNEINNNLQRVRELSVQATNGTNSDSDLKSIQDEIQQRLEEIDRVSNQTQFNGVKVLSQDNQMKIQVGANDGETITIDLQKIDVKSLGLDGFNVNSPGISGGGGGILDSMGTLINEDAAAAKKSTANPLASIDSALSKVDAVRSSLGAIDSAITALGATVTALASAASRIEDADYATEVSNMSKAQILQQAGTSVLAQANQVPQNVLSLLR,37
3,CBLB502 mutant MIXC (ligand) MSGLRINSAKDDAAGQAIANRFTSNIKGLTQASRNANDGISIAQTTEGALNEINNNLQRVRELSVQATNGTNSDSDLKSIQDEIQQRLEEIDRVSNQTQFNGVKVLSQDNQMKIQVGANDGETITIDLQKIDVKSLGLDGFNVNSPGSTANPLASIDSALSKVDAVRSSLGAIQARFAAAIANLGNTVTNLNSARSRIEDADYATEVSNMSKAQILQQAGTSVLAQANQVPQNVLSLLVPRGSHHHHHHG,1.5
4,CBLB502 mutant MIM1 (ligand) MRGSHHHHHHGMASMTGGQQMGRDLYDDDDKDPMAQVINTNSLSLLTQNNLNKSQSSLSSAIERLSSGLRINSAKDDAAGQAIANRFTSNIKGLTQASRNANDGISIAQTTEGALNEINNNLQRVRELSVQATNGTNSDSDLKSIQDEIQQRLEEIDRVSNQTQFNGVKVLSQDNQMKIQVGANDGETITIDLQKIDVKSLGLDGFNVNSPGISGGGGGILDSMGTLINEDAAAAKKSTANPLASIDSALSKVDAVRSSLGAIQNRFDSAITNLGNTVTALASARSRIEDADYATEVSNMSKAQILQQAGTSVLAQANQVPQNVLSLLR,0.9
5,CBLB502 mutant MIM5 (ligand) MRGSHHHHHHGMASMTGGQQMGRDLYDDDDKDPMAQVINTNSLSLLTQNNLNKSQSSLSSAIERLSSGLRINSAKDDAAGQAIANRFTSNIKGLTQASRNANDGISIAQTTEGALNEINNNLQRVRELSVQATNGTNSDSDLKSIQDEIQQRLEEIDRVSNQTQFNGVKVLSQDNQMKIQVGANDGETITIDLQKIDVKSLGLDGFNVNSPGISGGGGGILDSMGTLINEDAAAAKKSTANPLASIDSALSKVDAVRSSLGAIAKAFDSAITALGATVTALASAASRIEDADYATEVSNMSKAQILQQAGTSVLAQANQVPQNVLSLLR,54
6,CBLB502 mutant MIM3 (ligand) MRGSHHHHHHGMASMTGGQQMGRDLYDDDDKDPMAQVINTNSLSLLTQNNLNKSQSSLSSAIERLSSGLRINSAKDDAAGQAIANRFTSNIKGLTQASRNANDGISIAQTTEGALNEINNNLQRVRELSVQATNGTNSDSDLKSIQDEIQQRLEEIDRVSNQTQFNGVKVLSQDNQMKIQVGANDGETITIDLQKIDVKSLGLDGFNVNSPGISGGGGGILDSMGTLINEDAAAAKKSTANPLASIDSALSKVDAVRSSLGAIQNRFDSAITALGATVTALASAASRIEDADYATEVSNMSKAQILQQAGTSVLAQANQVPQNVLSLLR,4.6
7,CBLB502 mutant MIM2 (ligand) MRGSHHHHHHGMASMTGGQQMGRDLYDDDDKDPMAQVINTNSLSLLTQNNLNKSQSSLSSAIERLSSGLRINSAKDDAAGQAIANRFTSNIKGLTQASRNANDGISIAQTTEGALNEINNNLQRVRELSVQATNGTNSDSDLKSIQDEIQQRLEEIDRVSNQTQFNGVKVLSQDNQMKIQVGANDGETITIDLQKIDVKSLGLDGFNVNSPGISGGGGGILDSMGTLINEDAAAAKKSTANPLASIDSALSKVDAVRSSLGAIQNRFDSAITNLGNTVTALASAASRIEDADYATEVSNMSKAQILQQAGTSVLAQANQVPQNVLSLLR,1.2
